Data published in US20090208473A1 (RUTGERS THE STATE UNIVERSITY OF NEW JERSEY, published 2009).

Legend:
[1] = test system: UbCH5
[2] = test system: Ubc4
[3] = target: the molecule itself; test: oligomerization; Western blot without DTT of GFP-MG53 mutants from C2C12 cells
Text: These mutant constructs were transiently expressed in C2C12 myoblast cells (FIG. 22).

| Molecule | auto-ubiquitination in vitro (high molecular-mass ladders, anti-MBP immunoblot) [1] | auto-ubiquitination in vitro (high molecular-mass ladders, anti-MBP immunoblot) [2] | binding result [3] |
| --- | --- | --- | --- |
| MBP-MG53 (recombinant maltose-binding protein fusion protein for MG53) | High molecular-mass ladders derived from ubiquitination were observed when MBP-MG53 was incubated with Ubc4 or UbCH5 as E2 | High molecular-mass ladders derived from ubiquitination were observed when MBP-MG53 was incubated with Ubc4 or UbCH5 as E2 | – |
| GFP-MG53 C242A mutant (other, mouse, UniProt Q1XH17 1-477, looked up, the plasmid methods describe mouse MG53 cDNA; also called GFP-C242A; not shown: GFP at the N-terminus) MSAAPGLLRQELSCPLCLQLFDAPVTAECGHSFCRACLIRVAGEPAADGTVACPCCQAPTRPQALSTNLQLSRLVEGLAQVPQGHCEEHLDPLSIYCEQDRTLVCGVCASLGSHRGHRLLPAAEAQARLKTQLPQQKMQLQEACMRKEKTVAVLEHQLVEVEETVRQFRGAVGEQLGKMRMFLAALESSLDREAERVRGDAGVALRRELSSLNSYLEQLRQMEKVLEEVADKPQTEFLMKFALVTSRLQKILSESPPPARLDIQLPVISDDFKFQVWKKMFRALMPALEELTFDPSSAHPSLVVSSSGRRVECSDQKAPPAGEDTRQFDKAVAVVAQQLLSQGEHYWEVEVGDKPRWALGVMAADASRRGRLHAVPSQGLWLLGLRDGKILEAHVEAKEPRALRTPERPPARIGLYLSFADGVLAFYDASNPDVLTPIFSFHERLPGPVYPIFDVCWHDKGKNAQPLLLVGPEQEQA | – | – | no binding |
